Here are results for 167 variants from the RNAGym collection of RNA variant scans (doi:10.7554/elife.90254).

To fix the notation:
B1: OR4K15 (parent)
chain: GUUAACGGUCAUAGGCCAUGGAAACUAGGAGCACCAUUUCGCUGCCAGUGAAGAAAUGAACAAAGAAAAUCUGGGCCAGGCAGGCAUCAAAAGAAAUAGUCUUGCGCUCAACCAGAAAGUCUGUAAUCAUUUUAAGGGUA

The variants in the data set derive from B1. The data set is described as follows: self-cleavage, relative activity (ratio to wild type); higher = more cleavage; in vitro, sequencing; the parent is a self-cleaving ribozyme.
For A27G U100C, the self-cleavage turned out to be 1.8.
Take U26A A117G: the self-cleavage was found to be 1.78.
Then U26C U131A, with 1.02; and A24G C77U, with 1.55; and A24G A60G, with 0.89.
Then A23U U70C, with 0.83; and A24U U133A, with 1.54; and U26C A64G, with 0.74.
As for A27G A92C, the figure is 1.36; as for A27G A135G, 0.84.
A24G A110U: the self-cleavage stood at 0.99.
As for A27G A95C, the figure is 0.48.
Then A24U A116G, with 0.78.
As for A24C U108C, the figure is 0.01; as for A24C U108A, 0.01; as for A24G A111C, 0.02.
As for A24G A111U, the self-cleavage was found to be 0.19.
Then A24U C71A, with 0.49; and A24U U108C, with 0.02; and A24U U108A, with 0.07.
Then A27C A91G, with 0.64; and U26C A69C, with 1.74.
Take A23U A94U: the self-cleavage was 0.3.
A23U A94G: the self-cleavage was 1.18.
Regarding A27G A98G, the self-cleavage worked out at 0.77.
Regarding U26C C76U, the self-cleavage is 0.09.
U26C U72C: the self-cleavage was determined as 0.07.
Consider U26C U72A, for which the self-cleavage came to 0.33.
As for U26A A56G, the self-cleavage was 1.7.
Regarding A24G U102A, the self-cleavage was found to be 0.51.
As for A24G U102C, the figure is 1.48; as for A27G A140G, 1.
As for A24G U127A, the self-cleavage was 1.53.
A24U A56G: the self-cleavage worked out at 2.25.
Turning to A24U U120C, the self-cleavage is 0.8.
As to A24G A86G, the self-cleavage was found to be 1.19.
As for C25U A47U, the figure is 1.35.
Then A27G A67U, with 2.19; and A24G C105U, with 0.26.
As for A23U A117U, the figure is 0.6.
Take A24G C112U: the self-cleavage was 0.02.
Consider U26C A94G, for which the self-cleavage amounted to 0.95.
As for U26A A78U, the figure is 0.43; as for U26A A78G, 0.17; as for A24C U131C, 1.82.
As to A24G A36G, the self-cleavage came out at 1.15.
Then A27C A36C, with 2.11; and U26A U37C, with 0.43; and A24C A125G, with 0.43.
Then A24U A67U, with 1.89.
As for A24G U100C, the figure is 1.97.
As to A24C A51G, the self-cleavage was 1.23.
As for A27G A63U, the figure is 1.83.
For A24G G123A, the self-cleavage amounted to 1.48.
As for U26C A111G, the figure is 0.03; as for A23U A95G, 1.75; as for A23U U38C, 0.48.
With A24G A117G, the self-cleavage worked out at 1.45.
Then A27G A118G, with 0.47; and A27G A118U, with 0.36.
Then U26G A36G, with 1.37.
Then A24U A59G, with 1.28.
On to A24G A47U, for which the self-cleavage is 0.96.
As to U26C A118G, the self-cleavage worked out at 2.14.
Consider A24C U26C, for which the self-cleavage came out at 1.52.
As for A23U U43A, the figure is 1.44.
As for A24C A52G, the figure is 1.55.
Regarding U26C A82G, the self-cleavage is 0.5.
Then A24G A89U, with 1.41; and A24G A89G, with 0.78.
Consider U26C A47G, for which the self-cleavage amounted to 1.24.
Then A27G A89U, with 2; and A24G G138A, with 1.18.
As for A24U U49C, the figure is 0.58.
A24G G58A: the self-cleavage amounted to 0.4.
As for U26A U139A, the self-cleavage was 1.05.
As for A24G A96U, the figure is 0.93.
On to A27G A55G, for which the self-cleavage was determined as 1.57.
As for A24C A54G, the figure is 1.21.
For A24C U49C, the self-cleavage was 1.53.
Then A24G U120C, with 0.35.
As for U26C A95G, the figure is 1.75.
For C25U A89C, the self-cleavage came out at 1.42.
As for A24G A116G, the figure is 0.61.
As for C25U A82G, the figure is 0.05; as for A23U U37C, 1.41.
With A27G U108C, the self-cleavage amounted to 0.02.
As for U26A A62G, the figure is 1.75; as for A27G A117U, 0.53.
A27G A117G: the self-cleavage is 1.15.
Then A24U A114U, with 0.22; and A24U A114C, with 0.04; and A27G A111U, with 0.04.
Consider A24U U131A, for which the self-cleavage turned out to be 0.43.
As to A27G A56G, the self-cleavage was determined as 1.57.
As for A24U C105U, the figure is 0.17; as for U26C U70C, 0.38; as for U26C U70A, 0.63.
As to A24G U97A, the self-cleavage was determined as 1.79.
As for U26G A89C, the figure is 1.29.
As for A24G A82U, the figure is 0.31; as for C25U, 1.3; as for C25A, 0.92.
As for C25G, the figure is 1.1; as for A24G U70C, 0.53; as for A24C U38C, 1.26.
For the variant A23U A91G, the self-cleavage worked out at 0.79.
As for A27G A66C, the figure is 1.24; as for A27G G104A, 0.02; as for U26C A135U, 0.57.
As for U26C A91G, the figure is 1.26; as for C25U U72C, 0.4.
As for U26A A89G, the figure is 1.53; as for A24C A60G, 1.17.
In the case of A27G A54G, the self-cleavage amounted to 1.37.
For A27G U70C, the self-cleavage stood at 0.56.
Then A24G A67G, with 1.32.
As for A24G G80C, the figure is 0.1; as for A24C U102C, 1.22; as for U26C U127C, 0.85.
Then U26A A110G, with 0.22.
Consider C25A U122A, for which the self-cleavage amounted to 0.94.
As for A24G A64U, the figure is 1.51; as for A23U G79A, 0.16; as for U26C U124C, 1.05.
Then A24C A30G, with 1.02; and A24G U37C, with 1.12; and U26C A33G, with 0.84.
As for A27G A125U, the figure is 1.41.
For A27G A125G, the self-cleavage came to 0.26.
Then A24U U100A, with 0.31.
As to A24G U87C, the self-cleavage was found to be 1.18.
Then A24G U39A, with 1.45; and A27G G50A, with 2.45; and A27G U43C, with 1.41.
Then A27G A82C, with 0.1.
As for A27G A82G, the figure is 0.33.
In the case of U26C A78U, the self-cleavage is 0.21.
As to U26C A78G, the self-cleavage was 0.21.
On to A23U A92G, for which the self-cleavage worked out at 1.46.
For A27G C71A, the self-cleavage is 0.66.
A24C G104A: the self-cleavage amounted to 0.01.
As for A24G A126U, the figure is 0.98; as for A24U A52G, 1.32; as for A27G U37C, 1.27.
As for U26C U38C, the figure is 1.45.
Then A24G U43A, with 1.29; and A24G U43C, with 1.37.
For A24G A134U, the self-cleavage was 0.93.
As to A24G U108A, the self-cleavage is 0.04.
Then A24G U108C, with 0.03.
Then A24U A62G, with 2.33; and A24C U43C, with 1.9.
Then A24C U43A, with 0.67.
Consider A24U C76U, for which the self-cleavage came to 0.06.
In the case of A24U U37C, the self-cleavage was determined as 1.82.
As for A24U A78G, the figure is 0.38; as for A27G G44A, 1.52.
With A24U G28C, the self-cleavage came out at 1.02.
With A27G A129G, the self-cleavage is 1.06.
As for A24U U103C, the figure is 0.25; as for A23U A89G, 0.86; as for A27G A62U, 1.15.
Then A27G A62G, with 1.46.
Then A23U G123A, with 1.5; and U26G U127A, with 1.82.
As for A24G U72C, the self-cleavage worked out at 0.27.
